Assay: yeast display, Sf9 membrane polyspecificity reagent, FACS + sequencing; frameworks hold sequencing errors
Outline: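 Using colony PCR, genes from sorted yeast display clones were amplified, then sequenced on MiSeq at 2 × 250 and filtered by CDR length. The clones had been stained with 10% biotinylated, detergent-solubilized Sf9 membrane reagent for 1 hour at 4 °C and sorted by FACS into low and high (top ~1%) gates on anti-HA and streptavidin fluorescence. Polyreactivity labels come from the gate of origin.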
In the case of “QVQLVESGGGLVQAGGSLRLSCAASGSTFRGYVMGWYRQAPGKERELVASINWDGGSTYYADSVKGRFTISRDNAKNTVYLQMNSLKPEDTAVYYCAARRVGGGFYTWRNPAYEYWGQGTQVTVSS”, the “polyreactivity (PSR sort gate)” value is reported as “high polyreactivity”. With “QVQLVESGGGLVQAGGSLRLSCAASGRIYWNTMGWYRQAPGKERQLVASISTGGGRTYYADSVKGRFTISRDNAKNTVYLQMNSLKPEDTAVYYCAARRGAGYSRFNYWGQGTQVTVSS” the “polyreactivity (PSR sort gate)” value was “high polyreactivity”. With “QVQLVESGGGLVQAGGSLRLSCAASGSTFDYNAMGWYRQAPGKERELVAAISSGSRTNYADSVKGRFTISRDNAKNTVYLQMNSLKPEDTAVYYCAAKAYFYRRTQSRFSLYYYWGQGTQVTVSS” the “polyreactivity (PSR sort gate)” value was “high polyreactivity”. For “QVQLVESGGGLVQAGGSLRLSCAASGIIFAYAMGWYRQAPAKEREMVAAISGRDGSTYYADSVKGRFTISRDNAKNTVYLQMNSLKPDDTAVYYCAKRFSDLPVEMDYWGQGTQVTVSS”, the “polyreactivity (PSR sort gate)” value was “low polyreactivity”. For “QVQLVESGGGLVQAGVSLRLSCAASGSIFSKYVMGWYRQAPGKERELVAAISWSGTRTYYADSVKGRFTISRDYAKNSVYLQMNSLKPEDTAVYYCAKYIFTTGLGYWGQGTQVTVSS”, the “polyreactivity (PSR sort gate)” value was “high polyreactivity”. In the case of “QVLLVESGGGIVQAGGSLRLSCAASGIIFYVNAMGWYRQAPGKERELVAAITFGGDSTYYADSVKGRFTISRDNAKNTVYLQMNSLKPEDTAVYYCATDGDPAYPEMEYWGQGTQVTVSS”, the “polyreactivity (PSR sort gate)” value is reported as “low polyreactivity”. For “QVQLVESGGGVVQAGGSLRLSCAASGITFSRYAMGWYRQAPGKERELVAAISGSGGRTYYADSVKGRFTISRDNAKNTVYLQMNSLKPEDTAVYYCARESSYYKYYYWGQGTQVTVSS”, the “polyreactivity (PSR sort gate)” value was “high polyreactivity”. For “QVQLVESGGGLVQAGGSLRLSCAASGFIFHYNAMGWYRPAPGKERELVAAITSGDSTDYADSVKGRFTISRDNAKNTVYLQMNSLKREDTAVYYCAAAEGYLSKYENDYWGQGTQVTVSS”, the “polyreactivity (PSR sort gate)” value was “low polyreactivity”. For “QVQLVESGGGLVQAGGSLRLSCAASGFTFYTYALGWYRQAPGKEWELVAAITSGGGTYYADSVKGRFTISRDNAKNTVYLQMNSLKPEDTAVYYCNRASRRGYYYPYNYWGQGTQVTVSS”, the “polyreactivity (PSR sort gate)” value was “high polyreactivity”. For “QVQLVDSGGGLVQAGGSLRLSCAASGFTFADNAMGWYRQAPGKEREFVAAITWTADSTYYADSVKGRFTISRDNAKNTVYVQMNSLKPEDTAVYYCAASYSTIWTLYYYWGQGTQVTVSS”, the “polyreactivity (PSR sort gate)” value was “low polyreactivity”. With “QVQLVESGGGIVQAGGSLRLSCAASGSTFWFNDMGWYRAAPGKEREFVAAISSSGGSTYYADSVKGRFTISRDNAKNTVYVQMNSLKPEDTAVYYWAVEVVRDYRYADWGQGTQVTVSS” the “polyreactivity (PSR sort gate)” value was “low polyreactivity”. With “QVQLVESGGGLVQAGGSLRLSCAASGSIFRAYAMGWYRQAPGKERELVAGITKSGGSTYYADSVKGRFTISRDNAKNTVYLQMNILKPEDTAVYYCAAYRSRTYGYWGQGTQVTVSS” the “polyreactivity (PSR sort gate)” value was “high polyreactivity”. In the case of “QVQLVESGGGLVQEGGSLRLSCAASGFIFHVNAMGWYRQAPGKERELVARITTSGGNTFYADSVKGRFTISRDNAKNTVYLQMNSLKPEDTAVYYCAIRYRYSVGWPVKNSAFGYWGQGTQVTVSS”, the “polyreactivity (PSR sort gate)” value is reported as “low polyreactivity”. With “QVQLVESGGGLVQAGGSLRLSCAASGRTFKYNAMGWYRQAPGKERELVAAITRSGSTYYADSVKGRFTISRDNAKNTVYLQMNSLKPEDTAVYYCNARIVNYGSYYYWGQGTQVTVSS” the “polyreactivity (PSR sort gate)” value was “high polyreactivity”. With “QVQLVESGGGLVQAGGSLRLSCAASGRIFYRNGMGWYRQAPGKERELVAAISYSGGRTYYADSVKGRFTISRYNAKNTVYLQMNSLKPEDTAVYYCAAQWFEDFLYPWLEYDYWGQGTQVTVSS” the “polyreactivity (PSR sort gate)” value was “high polyreactivity”. With “QVQLVESGGGLVQAGGSLRLSCAASGFTFAYYAMGWDRQSPGNEREFVAAISSRGGSTYADSVKGRFTISRDNAKNTVYLQMNSLKPEDTAVYYCNAVVPRSRYFSWTYDYWGQGTQVTVSS” the “polyreactivity (PSR sort gate)” value was “high polyreactivity”. With “QVQLVESGGGLVQAGGSLRLSCAASGFTFKPYTMGWYRQAPGKERELVAAISRSGGSTYYADSVKGRFTISRDNAKNTVYLQMNSLKPEDTAVYYCAKRGNSWYLGGSWGQGTQVTVSS” the “polyreactivity (PSR sort gate)” value was “high polyreactivity”. With “QVQLEESGGGLVQAGGSLRLSCAASGFTFYLYAMGWYRQAPGKERELVASISSGGRTYYADSVKGRFTISRDNAKNTVYLQMNSLKPEDTAVYYCAVSPYSRRKYEYYYWGQGTQVTVSS” the “polyreactivity (PSR sort gate)” value was “high polyreactivity”. In the case of “QVQLVESGGGLVQAGGSLRLSCAASGIIFAWYAMGWYRQAPGKERELVAGISQSGGRTYYADSVKGRFTISRDNAKNSVYLQMNSLKPEDTAVYYCAAQWYYSPYVSGDYWGQGTQVTVSS”, the “polyreactivity (PSR sort gate)” value is reported as “high polyreactivity”. In the case of “QVQLVESGGGLVQAGGSLRLTSAGSGRIFDYNAMGCYRQAPGKERELVAAITYSGGSTYYADSVKGRFTISRDNAKNTVYLQMNSLKPEDTAVYYCAAPDPYYHYRYPWQSRYDYNYWGQGTQVTVSS”, the “polyreactivity (PSR sort gate)” value is reported as “low polyreactivity”. With “QVQIVESGGGLVQAGGSLRLSCAASGRSFYKYAMGWYRQAPGKERELVAAISKSGGRTYYADSVKGRFTISRDNAKNTVYLQMNSLKPEDTAVYYCAAEPFIPDQSRYYYWGQGTQVTVSS” the “polyreactivity (PSR sort gate)” value was “high polyreactivity”. For “QVQLVESGGGLVQAGGSRRLSCAASGRTIGVYAMGWYRQAPGKERELVAAFSWSGGTTYYADSVKGRFTISCDNAMNTVYLQLNSLKPEDNAVYYCAADSFTEVDYWGQGTQVTVSS”, the “polyreactivity (PSR sort gate)” value was “low polyreactivity”. In the case of “QVQLVESGGGLVQAGGSLRLSCAASGLTFPFYAMGWYRQAPGKERELVAAITGSGGITYYADSVKGRFTISRDNAKNTVYLQMNSLKPEETAVYYCAFDYTYYTSFVPLFGFDYWGQGTQVTVSS”, the “polyreactivity (PSR sort gate)” value is reported as “low polyreactivity”. For “QVQLVESGGGLVQAGGSLRLSCAASGRIFLYNAMGWYRQAPGKERELVAAITASGGTTYYADSVKGRFTISRDNAKNTVYLQMNSLKPEDNAVYYCNAYSYSGERYYWGQGTQVTVSS”, the “polyreactivity (PSR sort gate)” value was “high polyreactivity”. In the case of “QVQLVESGGGLVQAGGSLCLSCAASGSTLRRYAMGWYRQAPGKERELVAAITYRSGSTYYADSVKGRFTISRDNAKNTVYLQMNSLKPEDTAVYYCAKVGYVSKYWFAGDYWGQGTQVTVSS”, the “polyreactivity (PSR sort gate)” value is reported as “high polyreactivity”. For “QVQLVESGGGLVQAGGSLRLSCAASGYIFHYNTMGWYRQAPGKERELVAAITWSGGNTYYADSVKGRFTISRDNAKNTVYLQMNSLKPEDTAVYYFAKLNYSPEATRSNYWGQGTQVTVSS”, the “polyreactivity (PSR sort gate)” value was “low polyreactivity”. In the case of “QVQLVESGGGLVQAGGSLRLSCAASGRIFGVYAMGWYRQAPGKERELVAAISTRGGSTYYADSVKGRFTISRDNAKNTVYLQMNSLKPEDTAVYYCAAKSNNIATMDYWGQGTQVTVSS”, the “polyreactivity (PSR sort gate)” value is reported as “low polyreactivity”. In the case of “QVQLVESGGGLVQAGGSLRLSCAASGRSFVLNAMGWYRQAPGKDRELVAAISSGGSTNYADSVKWRFTISRDNAKNTDYLQMNSLKPEDTAVYYCAGQDVNEYSAYYYWGQGTQVTGSS”, the “polyreactivity (PSR sort gate)” value is reported as “low polyreactivity”. In the case of “QVQLVESGGGLVQAGGSLRLSCAASGYNFIVYTMGWYRQAPGKERELVAAISSGGITDYADSVKGRFTISRDNAKNTVYLQMNSLKPEDTAVYYWGQGTQVTVSS”, the “polyreactivity (PSR sort gate)” value is reported as “low polyreactivity”. In the case of “QVQLVESGGGLVQAGGSLRLSCAASGSTLVFSAMGWYRQAPGKERELVAAITRSGGSTYYADSVKGRFTITRDNAKNTVYLQMNSLKPEDTAVYYCAADERYIYERDSWGQGTQVSVSS”, the “polyreactivity (PSR sort gate)” value is reported as “low polyreactivity”. In the case of “QVQLVESGGGLVQAGGSLRLSCAASGFIFRRYVMGWYRQAPGKERELVAAISNGGGRTYYADSVKGRFTISRDNAKNTVYLQMNSLKPEDTAVYYCAAYPRGPLAPDYDYWGQGTQVTVSS”, the “polyreactivity (PSR sort gate)” value is reported as “high polyreactivity”. For “QVQLVESGGGLVQAGGSLRLSCASSGNIFYLYAKGWYRQARGKERELVAAIRGSGSTYYADSVKGRFTISRDNAKNTVYLQMNSLKPEDTAVYYCNARVRSQYLYSGTALGYYYWGQGTQVTVSS”, the “polyreactivity (PSR sort gate)” value was “high polyreactivity”. With “QVQLVESGGGLVQAGGSLRLSCAASGSIFIYYAMGWYRQAPGKERELVATISSDDRTNYTDSVKGRFTISRDNAKNTVYLQMNSLKPEDTAVYYCAADRYWAGRDGPEYDYWGQGTQVTVSS” the “polyreactivity (PSR sort gate)” value was “low polyreactivity”. In the case of “QVQLVESGGGLVQAGGILRLSCAASGITFGGYAMAWYRQAPGKERELVAAISRGGGSTNYADSVKGRFTISRDNAKNTVYLQINSLKPEDTAVYYCNARRQNSRYDYWGQGTQVTVSS”, the “polyreactivity (PSR sort gate)” value is reported as “low polyreactivity”. For “QVQLVESGVGLVQAGGRLRLSCAASGRIFGSNAMGWYRQAPGKERELVAAITRSGGSTYYADSVKGRFTISRDNAKNTVYLQMNSLKPEDTAVYYCAAVRTQPKYDYCGQGTQVTVSS”, the “polyreactivity (PSR sort gate)” value was “high polyreactivity”. For “QVQLVESGGGLVQAGGSLRLSCAASGRTMWAYSMGWYRPAHGKERELVAAITGSGGSTYYADSVKGRFTISRDNAKNTVYLQMNSLKPEDTAVYYCAAYSRTLHYDSWGQGTHVTVSS”, the “polyreactivity (PSR sort gate)” value was “high polyreactivity”. In the case of “QVQLVESGGGLVQAGGSLRLSCAASGFIFYYAMGWYRPAPGKERELVAAISSGSSTYADSVKGRFTISRDNAKNTVYLQMNSLKPEDTAVYYCATRYSSWYSNRDYDYWGQGTQVTVSS”, the “polyreactivity (PSR sort gate)” value is reported as “low polyreactivity”. In the case of “QVQLVESGGGLLQAGGSLRLSCAASGRILGPNAMGWYRQAPGTERELVAAINSGGSTNYADSVKGRFTISRDNAKNTVYLQMNSLKPEDTAVYYCATDKARVAGYGVEYDYWGQGTQVTVSS”, the “polyreactivity (PSR sort gate)” value is reported as “low polyreactivity”. For “QVQLVESGGGLVQAGGSLRLSCAASGRTCYNTMGWYRQSPGKERELVAAISRGGITNYADSVKGRFTISRDNAKNTVYLQMNSLKPADTAVYYCIAEPKRYYYYYKFDYWGQGTQVTVSS”, the “polyreactivity (PSR sort gate)” value was “high polyreactivity”. For “QVQLVESGGGLVQAGGSLRLSCAASGSIFWFNAMGWYRQAPGKERELVAAIRRIGGSTYYADSVKGRFTISRDNAKNTVYLQMNSLKPEDTAVYYCAAGVTFRGASYGYWGQGTQVTVSS”, the “polyreactivity (PSR sort gate)” value was “high polyreactivity”. In the case of “QVQLVESGGGLVQAGGSLRLSCAASGRIFYWNAMGWYRQEPGKEREFVAAIRLSSGSTYYADSVKGRFTISRDNAKYTVYLQLNSLKPVDTAVYYCATRTYTYWGGSYPHFYWGQGTQVTVSS”, the “polyreactivity (PSR sort gate)” value is reported as “high polyreactivity”. In the case of “QVQLVESGGGLLQAGGSLRLSCAASGSIFRYYAKGWYRQAPGKERELVAAISYSGGRTYYADSVKGRFTISRDNAKNTVYLQMNSLKPEDTAVYYCNAGAGKRGYDYWGQGTQVTVSS”, the “polyreactivity (PSR sort gate)” value is reported as “low polyreactivity”. With “QVQLVESGGGLVQAGGSLRLSCAASGITFYRNARGWYRQAPGKERELVAAITSGTRTYYADSVKGRFTISRDNAKNTVYLQMNSLKPEDTAVYYCAKRGPYYNDDEYYCGQGTQVTVSS” the “polyreactivity (PSR sort gate)” value was “low polyreactivity”.
